In IntAct's records for PubMed 9374523:

B1: MutS protein homolog 5 (Saccharomyces cerevisiae), Q12175 (parent)
chain: MSHEWLISASETMRSIGNGEGLRDKGAVVANNDGEFNEGDTNREEDSSTIFSFDFDEEIVMCIDFSGGKLGCSILDYHTKTLKAFDQDYVVNKTTISSHDLIDDADMSSNDISLLLGLLIMEANPTVCLVPARLEDWIFDYIKTKCDEINCRLELQPIKRFKKWDLLQSLQLRGHDNQTILNDILSNSKFTTTVTLGTVGCILANHEQLGEYNDSTASSNMVTGRLVQNAFEDVIHGIRYIDIRDRMVLDENTISALHIFPTAHKLGHDKMMRNGFFSVFELFNQVSSDYARRILKSWLINPLTNKKRIETRYSIIRTLLDKQNAIIFSDLSQSIKRCPDAFGFINQLRSGKSTLGTWSKVASFLEKGIAIFQLVSSLKLGSDEANILHDIKNKVDISALKECLRKVETVIDFDTSRDTKTLTINTGVDNRLDECRNIYNHLEGILLDVARETQIFLLNTMPQEDCKTTKSLEKLVNAVYIPQLGYLVTISVLMEPLLDGIPNLQWEEIFRSSENIYFKNGRVLELDETYGDIYGAISDFEIEILFSLQEQILRRKTQLTAYNILLSELEILLSFAQVSAERNYAEPQLVEDECILEIINGRHALYETFLDNYIPNSTMIDGGLFSELSWCEQNKGRIIVVTGANASGKSVYLTQNGLIVYLAQIGCFVPAERARIGIADKILTRIRTQETVYKTQSSFLLDSQQMAKSLSLATEKSLILIDEYGKGTDILDGPSLFGSIMLNMSKSEKCPRIIACTHFHELFNENVLTENIKGIKHYCTDILISQKYNLLETAHVGEDHESEGITFLFKVKEGISKQSFGIYCAKVCGLSRDIVERAEELSRMINRGDDVVQQCGNLTEKEMREFQKNQEIVKKFLSWDLDLETTTTSENLRLKLKNFLR
partner: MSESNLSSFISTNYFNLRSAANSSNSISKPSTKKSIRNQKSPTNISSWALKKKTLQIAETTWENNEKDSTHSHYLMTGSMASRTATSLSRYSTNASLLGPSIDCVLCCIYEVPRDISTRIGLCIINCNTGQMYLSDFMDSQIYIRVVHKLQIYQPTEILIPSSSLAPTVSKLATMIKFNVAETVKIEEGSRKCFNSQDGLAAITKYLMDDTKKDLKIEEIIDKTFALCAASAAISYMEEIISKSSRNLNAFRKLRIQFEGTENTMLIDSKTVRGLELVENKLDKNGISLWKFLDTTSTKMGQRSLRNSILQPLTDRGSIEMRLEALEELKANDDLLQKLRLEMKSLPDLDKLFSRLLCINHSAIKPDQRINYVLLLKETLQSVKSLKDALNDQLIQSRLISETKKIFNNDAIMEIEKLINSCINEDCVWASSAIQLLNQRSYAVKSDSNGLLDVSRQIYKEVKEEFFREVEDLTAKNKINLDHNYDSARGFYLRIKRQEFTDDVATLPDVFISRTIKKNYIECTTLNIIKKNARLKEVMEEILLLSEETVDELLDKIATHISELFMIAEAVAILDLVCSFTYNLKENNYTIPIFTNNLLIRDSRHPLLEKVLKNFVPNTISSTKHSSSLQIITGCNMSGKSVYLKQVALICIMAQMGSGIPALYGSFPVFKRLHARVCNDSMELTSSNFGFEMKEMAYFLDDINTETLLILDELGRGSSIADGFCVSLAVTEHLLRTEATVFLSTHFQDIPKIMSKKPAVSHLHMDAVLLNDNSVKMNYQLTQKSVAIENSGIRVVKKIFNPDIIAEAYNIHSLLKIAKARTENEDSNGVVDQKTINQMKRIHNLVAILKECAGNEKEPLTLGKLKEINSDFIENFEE

Variants of: B1
Details: with msh4_yeast MSH4, P40965

Effect of a mutation on the interaction, with no effect:
G821D
G643D
G648R
A644V
